In patent US20180250335:

Columns and labels:
Assay in all cases: cell_activity
[1] = test system: TALEN 1R2 (TAPBP exon 2 right arm) (synthetic construct); conditions: as pair 1L2*1R2 in hESCs, puromycin selection; SEQ 28 in the listing is printed reversed
[2] = test system: TALEN 1L2 (TAPBP exon 2 left arm) (synthetic construct); conditions: as pair 1L2*1R2 in hESCs, puromycin selection; one or two alleles
[3] = test system: TALEN 2R1 (TAP1 exon 1 right arm) (synthetic construct); conditions: as pair 2L3*2R1 in hESCs, puromycin selection; SEQ 24 in the listing is printed reversed
[4] = test system: TALEN 2L3 (TAP1 exon 1 left arm) (synthetic construct); conditions: as pair 2L3*2R1 in hESCs, puromycin selection; one or two alleles

Sequence “CTCTTGGCCAGGCCCTTT (double strand) [TAPBP exon 2 right half-site]” has an activity (% clones targeted) [1] of 33.3.
Sequence “GATCGAGTGTTGGTT (double strand) [TAPBP exon 2 left half-site]” has an activity (% clones targeted) [2] of 33.3.
With “GGCAAGTCCCGGCAGGG (double strand) [TAP1 exon 1 right half-site]” the activity (% clones targeted) [3] was 27.1.
“TGAAGCCATTAGCTG (double strand) [TAP1 exon 1 left half-site]” showed an activity (% clones targeted) [4] of 27.1.
